Experimental data: paper PMC4289617

Biological target: WDR5Δ23 (WD repeat domain 5, residues 24–334) (human) (UniProt P61964)
Assay: fluorescence polarisation

Row | IC50 [µM] | Ki [µM] | Substance
1 | > 300 | > 50 | Δ1 (Ac-AR-(N-Me)A-NH2) (peptide)
2 | 30 | 6.5 | Δ2b (Ac-ARA-CONMe2) (peptide)
3 | 0.7 | 0.15 | Δ2a (Ac-ARA-CONHMe) (peptide)
4 | 0.08 | 0.02 | Ac-H3-3mer (Ac-ART-NH2) (peptide)
5 | 0.54 | 0.12 | Ac-3mer (Ac-ARA-NH2) (peptide)
6 | 7.3 | 1.6 | Δ2c (Ac-ARA-COOCH3) (peptide)
7 | 127 | 27.3 | H3-3mer (H2N-ART-NH2) (peptide)
8 | 14.9 | 3.2 | CHO-3mer (CHO-ARA-NH2) (peptide)
9 | 125 | 27 | Ac-2mer (Ac-3mer without Ala3) (peptide)
10 | > 300 | > 50 | H2N-3mer (H2N-ARA-NH2) (peptide)
